Source: publication PMC2944808 (2010)

Target: T1, Chordin VWC2 (UniProt Q9H2X0)
T1 chain: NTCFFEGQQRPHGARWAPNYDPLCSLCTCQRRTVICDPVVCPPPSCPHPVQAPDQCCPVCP
Assay: SPR

B1: Crossveinless-2 (protein)
chain: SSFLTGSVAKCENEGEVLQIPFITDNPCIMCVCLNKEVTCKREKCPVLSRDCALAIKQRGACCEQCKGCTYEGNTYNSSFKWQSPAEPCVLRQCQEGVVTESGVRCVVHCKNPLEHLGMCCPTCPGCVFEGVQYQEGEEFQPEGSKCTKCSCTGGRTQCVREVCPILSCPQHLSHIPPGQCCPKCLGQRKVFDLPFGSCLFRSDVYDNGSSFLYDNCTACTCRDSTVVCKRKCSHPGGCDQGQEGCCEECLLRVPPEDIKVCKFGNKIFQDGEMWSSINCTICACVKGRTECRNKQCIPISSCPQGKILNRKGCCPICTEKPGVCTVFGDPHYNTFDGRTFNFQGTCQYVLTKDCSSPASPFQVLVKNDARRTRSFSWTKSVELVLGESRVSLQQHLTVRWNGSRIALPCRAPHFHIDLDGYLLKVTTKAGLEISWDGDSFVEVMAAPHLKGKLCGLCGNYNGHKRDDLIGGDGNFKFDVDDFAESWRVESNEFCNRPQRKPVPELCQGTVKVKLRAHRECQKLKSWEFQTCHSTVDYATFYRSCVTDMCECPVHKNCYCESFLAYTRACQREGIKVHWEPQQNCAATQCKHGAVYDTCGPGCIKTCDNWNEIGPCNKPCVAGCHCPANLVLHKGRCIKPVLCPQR
B1 was tested, and the Kd was 5 nM.
